Results on 20 sequences are retold here after the DeepSol protein solubility set.

This data set in a line: soluble on expression in E. coli; label from the status in PepcDB or PDB records.
Turning to “SLQSIIGKHKDEGKITPEYLKKIDAYWRAANFISVGQLYLLDNPLLREPLKPEHLKRKVVGHWGTIPGQNFIYAHLNRVIKKYDLDMIYVSGPGHGGQVMVSNSYLDGTYSEVYPNVSRDLNGLKKLCKQFSFPGGISSHMAPETPGSINEGGELGYSLAHSFGAVFDNPDLITACVVGDGEAETGPLATSWQANKFLNPVTDGAVLPILHLNGYKISNPTVLSRIPKDELEKFFEGNGWKPYFVEGEDPETMHKLMAETLDIVTEEILNIQKNARENNDCSRPKWPMIVLRTPKGWTGPKFVDGVPNEGSFRAHQVPLAVDRYHTENLDQLEEWLKSYKPEELFDENYRLIPELEELTPKGNKRMAANLHANGGLLLRELRTPDFRDYAVDVPTPGSTVKQDMIELGKYVRDVVKLNEDTRNFRIFGPDETMSNRLWAVFEGTKRQWLSEIKEPNDEFLSNDGRIVDSMLSEHLCEGWLEGYLLTGRHGFFASYEAFLRIVDSMITQHGKWLKVTSQLPWRKDIASLNLIATSNVWQQDHNGYTHQDPGLLGHIVDKKPEIVRAYLPADANTLLAVFDKCLHTKHKINLLVTSKHPRQQWLTMDQAVKHVEQGISIWDWASNDKGQEPDVVIASCGDTPTLEALAAVTILHEHLPELKVRFVNVVDMMKLLPENEHPHGLSDKDYNALFTTDKPVIFAFHGFAHLINQLTYHRENRNLHVHGYMEEGTITTPFDMRVQNKLDRFNLVKDVVENLPQLGNRGAHLVQLMNDKLVEHNQYIREVGEDLPEITNWQWHV”, the “soluble on expression in E. coli” value is reported as “soluble”.

On to “MVTFKPKVLHFVNATNLNQVDGTGTIVNEWIKAAGGQNALKQKGNMISVTTETLAKSDPDVIIVGSATTAEARAALKKNAVLSKLTAVKKNRVYGNPQGTFPWDRYSAEEALQVLWAAKKLHPDQFQLEHHHHHH”, for which the “soluble on expression in E. coli” value is “not soluble”.

With “MSLGMPSKQREYSNRFFDSTVWNDFAFRDDDVVIASYAKAGTTWVQQIVAQLIFGGAEEIEVSRLSPWFDSVYPDKATKQRLLAEQRHRRFVKTHLPADALVLSERARYLYVGRDARDIVWSLYDHQRAVSADAQARLDAEPSSNGKLRVMPPPTCSVEDYFQTWMRADGAPLWPFWEGVRSWWALRDYDNVLLVHYAALLHDLPAQVRRIAAFLDIPLDAPCCERVLAHCSLDYMRAHAARYVPQGAGFWRDGGRAFFNQGLNGRWRDRLAPAVDAAYRQHVVAELGAECARWLATGDVASEGHHHHHH”, the “soluble on expression in E. coli” value is listed as “soluble”.

Turning to “MKSHCNKMVGGELKPIIAALLPVEPFYPTQVPFVLSRYIYDVADRQQSSLDYVAVSALCALAAVIGNPHCS”, the “soluble on expression in E. coli” value is listed as “not soluble”.

On to “DVQLQQSGPELKKPGETVKLSCKASGYTFTNFGLNWMKQAPGKGLKWMGWINTYTGESTYADDFKGRFAFSLETSASTAYLQINNVKNEDTATYFCARGFYYYGSRYFYFDYWGQGTTLTVSSAKTTAPSVYPLAPVCGDTTGSSVTLGCLVKGYFPEPVTLTWNSGSLSSGVHTFPAVLQSDLYTLSSSVTVTSSTWPSQSITCNVAHPASSTKVDKKIEPRGP”, for which the “soluble on expression in E. coli” value is reported as “soluble”.

As to “MATFKDFRNNVKPNWCPGCGDFSVQAAIQKAAANIGLEPEEVAIITGIGCSGRLSGYINSYGVHSIHGRALPLAQGVKMANKDLTVIASGGDGDGYAIGMGHTIHALRRNMNMTYIVMDNQIYGLTKGQTSPSSAVGFVTKTTPKGNIEKNVAPLELALSSGATFVAQGFSSDIKGLTKLIEDAINHDGFSFVNVFSPCVTYNKINTYDWFKEHLTSVDDIENYDSTDKQLATKTVIEHESLVTGIVYQDKETPSYESQIKELDDTPLAKRDIKITEDTFNALTEQFI”, the “soluble on expression in E. coli” value is given as “not soluble”.

For the sequence “GMTTKDISRPVCILGLGLIGGSLLRDLHAANHSVFGYNRSRSGAKSAVDEGFDVSADLEATLQRAAAEDALIVLAVPMTAIDSLLDAVHTHAPNNGFTDVVSVKTAVYDAVKARNMQHRYVGSHPMAGTANSGWSASMDGLFKRAVWVVTFDQLFDGTDINSTWISIWKDVVQMALAVGAEVVPSRVGPHDAAAARVSHLTHILAETLAIVGDNGGALSLSLAAGSYRDSTRVAGTDPGLVRAMCESNAGPLVKALDEALAILHEAREGLTAEQPNIEQLADNGYRSRIRYEARSGQRRAKESVSPTITSSRPVLRLHPGTPNWEKQLIHAETLGARIEVF”, the “soluble on expression in E. coli” value is given as “soluble”.

On to “MTGYACNHPNIYQSCNCQSFCQPYTHPHEMYYHHGYGCNGHCLDHQESMCEEDDECGMKKRKKHRKKNKKKKNKKKFRFSDEEDDEEKVAHHKKKPIEEDDDEFPLPPNSEEVAEASKSSKKEEDWEDDDKWERKFVSQTTTPAPRQAASGGGLGGLGLGNGGLFGISSGVGVGIPGVGPIGVSSGLGIGK”, for which the “soluble on expression in E. coli” value is recorded as “not soluble”.

In the case of “GTPEQLQAWRWEREIDERNRPLSDEELDAMFPEGYKVLPPPAGYVPI”, the “soluble on expression in E. coli” value is listed as “soluble”.

Turning to “MAKTLYEKLFDAHVVYEAQNETPLLYIDRHLVHEVTSPQAFDGLRAHGRQVRQPGKTFATMDHNVSTQTKDINASGEMARIQMQELIKNCKEFGVELYDLNHPYQGIVHVMGPEQGVTLPGMTIVCGDS”, the “soluble on expression in E. coli” value is recorded as “not soluble”.

With “MGSDKIHHHHHHMMDMTTRPTLQHFLSDTKHGPYVSLYMSWPENTSVEALRLRFKNMVKHTKSVMTETYPETDFSAYAAELEPYEQDPTFWQTCETNGFGMLTNGAQTYVTPMYEAVDEVAMVTDMPQILPLMLDEATATDFDILALNADSIQMYHNHGHQVRPISLPDDAPQTLKGTLGTEIRGGETNSVSQGGGRVTHHGHNEKSAEKASDQRRFYQAVDQYVLANHSNPHKMPLVLMGLAENVAVFREISKNHHLLPKLAVVKSPANLDFVELDDLLTPVRETLRDRRRQNFAEIIENARGNDSYTDHLEEVVQAAVAGRIAILFVQAGARIHARLEGTQIERDSINAQHANLLNDLADIVLSHGGQVELLTEAYLPVEVGAMVRYA”, the “soluble on expression in E. coli” value was “not soluble”.

“MSRTILQPGQIEAAANIPPHLHQPSRDLFARRGERLLQLAEGHPMGDYLRLVAGLCRLQQALLDNPPALAPLDPERLRKSREHGMPPLAYDLLVREGAWLPWLDALLAGYPAPANAAVGAALEQLREAEEGQRKAWAIALLSGQFDLLPAALVPFLGAALQVAWSHWLLGLEEGAVVETESRTLCPACGSPPMAGMIRQGGKETGLRYLSCSLCACEWHYVRIKCSHCEESKHLAYLSLEHDGQPAEKAVLRAETCPSCQGYLKQFYLEFDRHADALADDLASLALDMRLAEDGYLRRSPNLLLAPGGE”: the “soluble on expression in E. coli” value is “soluble”.

In the case of “KTNTEQFCSDCHMNDVVPEYRASAHYSNRSGVKAVCADCHVPHEFAPKMLRKLQASTEVYAHLTGKVDNKEKFEAHRLAMAEREWARMKANNSQECRNCHNFEDMDFTQQKTVAQQMHSRAETENKTCIDCHKGIAHNLPHMEKVQKSFIPDDMIKKTEKATEIK”, the “soluble on expression in E. coli” value is “not soluble”.

Consider “MHEPMKTLKNIHAEIRICQKFPKSTVQKRFSEFEELIKAASKNARNWKPISSVELFQGDSSLNELFEKLVIGTCELRDGELFENVNDLTINPSNIHVYKLHKDGPLSQNIGDDDGDESIIGSQLWQLPCVEFDSIWENLIYDSNLKNEVMSYVAALARLSEKHVNTKIINVNRLILLTGPPGTGKTSLCKGLAQHLSIRMNDKYSKSVMLEINSHSLFSKWFSESGKLVQKMFDQIDELAEDEKCMVFVLIDEVESLGMCRESSSSRSEPSDAIRAVNALLTQIDRIRRRDNVLILCTSNLESTLDKALVDRADIVKNVGQPSDFARYSMLKSSIMELARIGVVIDNEVHTDYWPQDICDTKAPRNEFTEILFKIAQEARGLSGRAISMLPTLVYSKSPEETITLPNCMNLFLEAVKERLSRNN”, for which the “soluble on expression in E. coli” value is recorded as “not soluble”.

For “MVTAPPTDYFASFTTNDDALVLASVSSDAELELLNVWLRTHRREHPDSKVDVLQLPAADEPAPGDLARLVEELEADENRLVVPVRVFWVPGGLPTRLKVVALMSGRDTYRPPEILQRRILRKDPSRARVVAGEPAKVSELRKQWSETTVGENPRDFAHFVLRRAVLAIERVELRLLGPEYKSPRLVKPEMMASSRFREGLAKIPGATPEKAGEMLDELSTGWSRFSVDLIPSLGRAIFSRGFDPRIDYDRIEIEQMRHALEQHPAVLLFSHRSYLDGVIVPVAMQENRLPPVHTFAGINLSFGIMGPIFRHSGVIFLRRKLDDPLYKYVLRQYVGYLVEKRFNLNWSIEGTRSRTGKMLPPKLGLLAYVADAYLDGRSDDILLQPVSISFDQLHETAEYAEYARGGEKRPEGLSWLYNFVKAQGERNYGKIYVRFPEAVSMRQYLGEPHGPLVEDEAAKRLAMQKMAIEVAWRILRVTPVNATNLVSALLLTARGVALTLEQLHQALQDSLDYLEQKKTPVTNSAMRLRTLEGVRAAVDALSGGHPVTCVDTGREPVWRIAPENELEAAFYRNSLIHAFLETSLVELALAYAARTADAEGDPLQAFWTQVVRLRDLLKFDFYFADSAAFHQNVAEEMSWHADWEQQVRAGRDGIETLMRAKRPLLADAMLRPYFEAYTIVADVLRDAPAEIAEKDLTKLALGVGQQYVAQGRVRNNESVSALLFATARQVAADQGLLEHGPDLMEQRRAFRDELRGILRDLDTVDRYARELFAARERERRTKRDEAVLEHHHHHH”, the “soluble on expression in E. coli” value was “soluble”.

As for “MSLDKSIPVPEPSRMITGIKVHKISDVITYQGMISLTYDNNKRLTRIYSSSPLAAVNYTYKENSEVSYTYSTENSPLVEISTSLENGRSYVCKFSNRENPVTYSYDNEGYLKSCNNNGTVLEYNWESGNLSSITTTPRGTYNSDYRVSNIANDYSLDLNTLAQWIDDRENYTTVMNTFGQMAEILGKRSANILEDTYYIYDYSFRQDGRLKDMTLMGGSENIGYSFRFSYADDTEVSEGHHHHHH”, the “soluble on expression in E. coli” value is given as “soluble”.

As to “MMRGSHHHHHTDPISYIIRKADSVNKALDSAVPLREPLKIHEAMRYSLLAGGKRVRPVLCIAACELVGGEESLAMPAACAVEMIHTMSLIHDDVYGEDVAVLAGDALLSFAFEHLASATSSEVSPARVVRAVGELAKAIGTEGLVAGQVVDISNVGLEHLKFIHLHKTAALLEASAVLGGIIGGGSDEEIERLRKFARCIGLLFQVVDDILDVTIADKLTYPKLMGLEKSREFAEKLNTEARDQLLGFDSDKVAPLLALANYIANRQN”, the “soluble on expression in E. coli” value is “soluble”.

With “MGSDKIHHHHHHMIEFKEVSKRFGSTLALDKLDANFPTGKIIGLFGPNGAGKSTSIKMIAGLNRPDQGQVVIDGELPRMSKAQIAYLPEIDHLYPWMTIGQAAGFTRSFYVDWDNDKYHELLKYLNLNAEMKIGKISKGQRAKTKLLLTAARRAPYLLMDEPLSGIDILTREEIINTLVRDYREGEQTIIISTHEIAEVESLVDEVFFIDQGKIMLSGSAEEFRVERGQSLVEIMKEAFRHADQ”, the “soluble on expression in E. coli” value is “not soluble”.

Consider “MIVLPRRLSDEVADRVRALIDEKNLEAGMKLPAERQLAMQLGVSRNSLREALAKLVSEGVLLSRRGGGTFIRWRHDTWSEQNIVQPLKTLMADDPDYSFDILEARYAIEASTAWHAAMRATPGDKEKIQLCFEATLSEDPDIASQADVRFHLAIAEASHNIVLLQTMRGFFDVLQSSVKHSRQRMYLVPPVFSQLTEQHQAVIDAIFAGDADGARKAMMAHLSFVHTTMKRFDEDQARHARITRLPGEHNEHSREKNA”, for which the “soluble on expression in E. coli” value is listed as “soluble”.

Take “MDDLPYLARGVMPVETPSSVLVSSSKYLNNPRLREWLAMILLRKNGPDFPPPAEMYEFLPILEELRDHDRIEAMFAEERRVNPELDAWLSEGFYSTYAIEDFRQFAPGTLGGIFYQWITEGNYEIQITPWREPKSQLEFYNLRSGQTHDFEHILCGGGFNFMGELVPYWYRLTNVFKHIRNQELAAELSMIQIFGSLRYTVRTMLHYPQIWMTCVDAIQRGMKVGQESDALFMKKLEPHFHLPLEEARAALGVRGAVDVDTEIEGAFWAGRAPLSALTERIAAELEHHHHHH”: the “soluble on expression in E. coli” value is recorded as “soluble”.
